Experimental findings from paper PMC7138525 (Cell reports, 2020) are described below.

Test [1] addresses T1, HCB, recombinant BoNT preparation coated for ELISA (Clostridium botulinum, BoNT/B subtype B1).
T1 chain: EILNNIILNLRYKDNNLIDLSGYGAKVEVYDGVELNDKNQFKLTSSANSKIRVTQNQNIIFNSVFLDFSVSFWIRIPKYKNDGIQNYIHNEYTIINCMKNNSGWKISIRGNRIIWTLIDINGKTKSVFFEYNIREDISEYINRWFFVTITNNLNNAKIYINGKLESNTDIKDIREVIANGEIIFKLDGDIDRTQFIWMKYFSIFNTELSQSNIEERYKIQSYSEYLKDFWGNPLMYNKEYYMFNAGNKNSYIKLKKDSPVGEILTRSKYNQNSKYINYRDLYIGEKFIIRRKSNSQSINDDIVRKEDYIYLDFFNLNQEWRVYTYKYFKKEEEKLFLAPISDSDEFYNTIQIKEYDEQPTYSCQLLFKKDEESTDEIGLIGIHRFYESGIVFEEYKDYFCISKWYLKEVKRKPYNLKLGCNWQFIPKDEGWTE
Nature of the test: ELISA. Background: In an ELISA, binding on a coated surface is turned into a signal by an enzyme label.

Test [2] addresses T2, HCB, receptor-binding domain of BoNT/B1 (E859–E1291) (UniProt P10844). Nature of the test: crystal structure.
Test [3] deals with T2, HCB, receptor-binding domain of BoNT/B1 …. Nature of the test: SEC.

B1: VHH JLO-G11, His6-tagged thioredoxin fusion with carboxy-terminal E-tag (VHH)
VHH: QVQLAESGGGLVQPGGSLRLSCEASGFHLEHFAVGWFRQAPGKEREGVSCISASGDSTTYADSVKGRSTISKDNAKNAVYLQMDSLRPEDTGDYYCAASHFSVCGKNIRKIEYRYWGQGTPVTVSS
B1: in test [1], the binding result is on record as “binds”.

B2: VHH JLI-G10 (VHH)
VHH: QVQLVESGGGLVQAGGSLRLSCAASILTYDLDYYYIGWVRQAPGKEREGVSCISSTDGATYYADSVKGRFTISRNNAKNTVYLQMNNLKPEDTAIYYCAAAPLAGRYCPASHEYGYWGQGTQVTVSS
Turning to B2, in test [2], the binding result is reported as “binds”.

B3: VHH JLI-G10, His6-tagged thioredoxin fusion with carboxy-terminal E-tag (VHH)
VHH: B2 VHH
For the molecule B3, the binding result in test [1] is “binds”.

B4: VHH JLI-H11 (from GST fusion) (VHH)
VHH: QVQLVESGGGLVQPGESLRLSCGASGMSLDYYAIAWYRQAPGKEREGVSCISVSGSSAQYLDSVRGRFIISKDNTKSTAYLQMNSLKPEDTAVYYCAALADCAGYASLTFDFDSWGQGTQVAVSS
As to B4, the binding result in test [3] is reported as “binds”.

B5: VHH JLI-H11, His6-tagged thioredoxin fusion with carboxy-terminal E-tag (VHH)
VHH: B4 VHH
Take B5: the binding result in test [1] is “binds”.

B6: VHH JLK-G12 (from GST fusion) (VHH)
VHH: QVQLVESGGGLVQAGGSLRLSCAASEFRAEHFAVGWFRQAPGKEREGVSCVDASGDSTAYADSVKGRFTISRDNNKNVVYLQMDSLEPEDTGDYYCGASYFTVCAKSMRKIEYRYWGQGTQVTVSS
With B6, in test [3], the binding result is given as “binds”.

B7: VHH JLK-G12, His6-tagged thioredoxin fusion with carboxy-terminal E-tag (VHH)
VHH: B6 VHH
Regarding B7, the binding result in test [1] is reported as “binds”.
